Data from the MegaScale stability set (Tsuboyama et al. 2023).

B1: 2M8U (parent)
chain: TKAQVIEAFKVFDRDGNGYVTVDYLRKVLNELGDMMPADEIEEMIYEADPQNSGYVQYETFVGMLFL

Variants of: B1
Experiment: folding stability dG (cDNA display proteolysis); higher = more stable
Settings: PBS, room temperature

Row | Variant | folding stability dG [kcal/mol]
1 | TKAQVIEAFKVFDRDGNGYVTVDYLRKVLNELGDQMPADEIEEMIYEADPQNSGYVQYETFVGMLFL [M35Q] | 3.09
2 | TKAQVIEAFKVFDRDGNGYVTVDYLRKVLNELGDHMPADEIEEMIYEADPQNSGYVQYETFVGMLFL [M35H] | 3.01
3 | TKAQVIEAFKVFDRDGNGYVTVDYLRKVLNELGDDMPADEIEEMIYEADPQNSGYVQYETFVGMLFL [M35D] | 2.96
4 | TKAQVIEAFKVFDRDGNGYVTVDYLRKVLNELGDGMPADEIEEMIYEADPQNSGYVQYETFVGMLFL [M35G] | 2.95
5 | TKAQVIEAFKVFDRDGNGYVTVDYLRKVLNELGDCMPADEIEEMIYEADPQNSGYVQYETFVGMLFL [M35C] | 3.25
6 | TKAQVIEAFKVFDRDGNGYVTVDYLRKVLNELGDAMPADEIEEMIYEADPQNSGYVQYETFVGMLFL [M35A] | 3.09
7 | TKAQVIEAFKVFDRDGNGYVTVDYLRKVLNELGDKMPADEIEEMIYEADPQNSGYVQYETFVGMLFL [M35K] | 3.16
8 | TKAQVIEAFKVFDRDGNGYVTVDYLRKVLNELGDIMPADEIEEMIYEADPQNSGYVQYETFVGMLFL [M35I] | 3.69
9 | TKAQVIEAFKVFDRDGNGYVTVDYLRKVLNELGDLMPADEIEEMIYEADPQNSGYVQYETFVGMLFL [M35L] | 3.68
10 | TKAQVIEAFKVFDRDGNGYVTVDYLRKVLNELGDYMPADEIEEMIYEADPQNSGYVQYETFVGMLFL [M35Y] | 3.33
11 | TKAQVIEAFKVFDRDGNGYVTVDYLRKVLNELGDSMPADEIEEMIYEADPQNSGYVQYETFVGMLFL [M35S] | 3.07
12 | TKAQVIEAFKVFDRDGNGYVTVDYLRKVLNELGDEMPADEIEEMIYEADPQNSGYVQYETFVGMLFL [M35E] | 2.98
13 | TKAQVIEAFKVFDRDGNGYVTVDYLRKVLNELGDNMPADEIEEMIYEADPQNSGYVQYETFVGMLFL [M35N] | 2.96
14 | TKAQVIEAFKVFDRDGNGYVTVDYLRKVLNELGDFMPADEIEEMIYEADPQNSGYVQYETFVGMLFL [M35F] | 3.9
15 | TKAQVIEAFKVFDRDGNGYVTVDYLRKVLNELGDWMPADEIEEMIYEADPQNSGYVQYETFVGMLFL [M35W] | 3.6
16 | TKAQVIEAFKVFDRDGNGYVTVDYLRKVLNELGDVMPADEIEEMIYEADPQNSGYVQYETFVGMLFL [M35V] | 3.38
17 | TKAQVIEAFKVFDRDGNGYVTVDYLRKVLNELGDRMPADEIEEMIYEADPQNSGYVQYETFVGMLFL [M35R] | 3.02
18 | TKAQVIEAFKVFDRDGNGYVTVDYLRKVLNELGDPMPADEIEEMIYEADPQNSGYVQYETFVGMLFL [M35P] | 3.12
19 | TKAQVIEAFKVFDRDGNGYVTVDYLRKVLNELGDTMPADEIEEMIYEADPQNSGYVQYETFVGMLFL [M35T] | 3.14
20 | TKAQVIEAFKVFDRDGNGYVTVDYLRKVLNELGKMMPADEIEEMIYEADPQNSGYVQYETFVGMLFL [D34K] | 3.43
21 | TKAQVIEAFKVFDRDGNGYVTVDYLRKVLNELGCMMPADEIEEMIYEADPQNSGYVQYETFVGMLFL [D34C] | 4.32
22 | TKAQVIEAFKVFDRDGNGYVTVDYLRKVLNELGIMMPADEIEEMIYEADPQNSGYVQYETFVGMLFL [D34I] | 4.72
23 | TKAQVIEAFKVFDRDGNGYVTVDYLRKVLNELGFMMPADEIEEMIYEADPQNSGYVQYETFVGMLFL [D34F] | 4.68
24 | TKAQVIEAFKVFDRDGNGYVTVDYLRKVLNELGAMMPADEIEEMIYEADPQNSGYVQYETFVGMLFL [D34A] | 3.54
25 | TKAQVIEAFKVFDRDGNGYVTVDYLRKVLNELGGMMPADEIEEMIYEADPQNSGYVQYETFVGMLFL [D34G] | 3.42
26 | TKAQVIEAFKVFDRDGNGYVTVDYLRKVLNELGPMMPADEIEEMIYEADPQNSGYVQYETFVGMLFL [D34P] | 3.89
27 | TKAQVIEAFKVFDRDGNGYVTVDYLRKVLNELGYMMPADEIEEMIYEADPQNSGYVQYETFVGMLFL [D34Y] | 4.42

Row | Variant | folding stability dG [kcal/mol]
28 | TKAQVIEAFKVFDRDGNGYVTVDYLRKVLNELGHMMPADEIEEMIYEADPQNSGYVQYETFVGMLFL [D34H] | 3.53
29 | TKAQVIEAFKVFDRDGNGYVTVDYLRKVLNELGWMMPADEIEEMIYEADPQNSGYVQYETFVGMLFL [D34W] | 4.49
30 | TKAQVIEAFKVFDRDGNGYVTVDYLRKVLNELGEMMPADEIEEMIYEADPQNSGYVQYETFVGMLFL [D34E] | 3.77
31 | TKAQVIEAFKVFDRDGNGYVTVDYLRKVLNELGVMMPADEIEEMIYEADPQNSGYVQYETFVGMLFL [D34V] | 4.2
32 | TKAQVIEAFKVFDRDGNGYVTVDYLRKVLNELGTMMPADEIEEMIYEADPQNSGYVQYETFVGMLFL [D34T] | 3.51
33 | TKAQVIEAFKVFDRDGNGYVTVDYLRKVLNELGMMMPADEIEEMIYEADPQNSGYVQYETFVGMLFL [D34M] | 4.24
34 | TKAQVIEAFKVFDRDGNGYVTVDYLRKVLNELGQMMPADEIEEMIYEADPQNSGYVQYETFVGMLFL [D34Q] | 3.79
35 | TKAQVIEAFKVFDRDGNGYVTVDYLRKVLNELGNMMPADEIEEMIYEADPQNSGYVQYETFVGMLFL [D34N] | 3.58
36 | TKAQVIEAFKVFDRDGNGYVTVDYLRKVLNELGLMMPADEIEEMIYEADPQNSGYVQYETFVGMLFL [D34L] | 4.44
37 | TKAQVIEAFKVFDRDGNGYVTVDYLRKVLNELGSMMPADEIEEMIYEADPQNSGYVQYETFVGMLFL [D34S] | 3.32
38 | TKAQVIEAFKVFDRDGNGYVTVDYLRKVLNELGRMMPADEIEEMIYEADPQNSGYVQYETFVGMLFL [D34R] | 3.51
39 | TKAQVIEAFKVFDRDGNGYVTVDYLRKVLNELGDMYPADEIEEMIYEADPQNSGYVQYETFVGMLFL [M36Y] | 3.57
40 | TKAQVIEAFKVFDRDGNGYVTVDYLRKVLNELGDMNPADEIEEMIYEADPQNSGYVQYETFVGMLFL [M36N] | 3.34
41 | TKAQVIEAFKVFDRDGNGYVTVDYLRKVLNELGDMRPADEIEEMIYEADPQNSGYVQYETFVGMLFL [M36R] | 3.6
42 | TKAQVIEAFKVFDRDGNGYVTVDYLRKVLNELGDMSPADEIEEMIYEADPQNSGYVQYETFVGMLFL [M36S] | 3.41
43 | TKAQVIEAFKVFDRDGNGYVTVDYLRKVLNELGDMAPADEIEEMIYEADPQNSGYVQYETFVGMLFL [M36A] | 3.8
44 | TKAQVIEAFKVFDRDGNGYVTVDYLRKVLNELGDMQPADEIEEMIYEADPQNSGYVQYETFVGMLFL [M36Q] | 3.19
45 | TKAQVIEAFKVFDRDGNGYVTVDYLRKVLNELGDMKPADEIEEMIYEADPQNSGYVQYETFVGMLFL [M36K] | 3.66
46 | TKAQVIEAFKVFDRDGNGYVTVDYLRKVLNELGDMVPADEIEEMIYEADPQNSGYVQYETFVGMLFL [M36V] | 3.81
47 | TKAQVIEAFKVFDRDGNGYVTVDYLRKVLNELGDMTPADEIEEMIYEADPQNSGYVQYETFVGMLFL [M36T] | 3.65
48 | TKAQVIEAFKVFDRDGNGYVTVDYLRKVLNELGDMHPADEIEEMIYEADPQNSGYVQYETFVGMLFL [M36H] | 3.99
49 | TKAQVIEAFKVFDRDGNGYVTVDYLRKVLNELGDMFPADEIEEMIYEADPQNSGYVQYETFVGMLFL [M36F] | 4.23
50 | TKAQVIEAFKVFDRDGNGYVTVDYLRKVLNELGDMWPADEIEEMIYEADPQNSGYVQYETFVGMLFL [M36W] | 4.42
51 | TKAQVIEAFKVFDRDGNGYVTVDYLRKVLNELGDMGPADEIEEMIYEADPQNSGYVQYETFVGMLFL [M36G] | 3.48
52 | TKAQVIEAFKVFDRDGNGYVTVDYLRKVLNELGDMLPADEIEEMIYEADPQNSGYVQYETFVGMLFL [M36L] | 3.72
53 | TKAQVIEAFKVFDRDGNGYVTVDYLRKVLNELGDMCPADEIEEMIYEADPQNSGYVQYETFVGMLFL [M36C] | 3.44
54 | TKAQVIEAFKVFDRDGNGYVTVDYLRKVLNELGDMPPADEIEEMIYEADPQNSGYVQYETFVGMLFL [M36P] | 3.63

Row | Variant | folding stability dG [kcal/mol]
55 | TKAQVIEAFKVFDRDGNGYVTVDYLRKVLNELGDMEPADEIEEMIYEADPQNSGYVQYETFVGMLFL [M36E] | 2.77
56 | TKAQVIEAFKVFDRDGNGYVTVDYLRKVLNELGDMDPADEIEEMIYEADPQNSGYVQYETFVGMLFL [M36D] | 2.72
57 | TKAQVIEAFKVFDRDGNGYVTVDYLRKVLNELGDMIPADEIEEMIYEADPQNSGYVQYETFVGMLFL [M36I] | 3.75
58 | TKAQVIEAFKVFDRDGNGYVTVDYLRKVLNELYDMMPADEIEEMIYEADPQNSGYVQYETFVGMLFL [G33Y] | 3.48
59 | TKAQVIEAFKVFDRDGNGYVTVDYLRKVLNELGDMMPCDEIEEMIYEADPQNSGYVQYETFVGMLFL [A38C] | 3.52
60 | TKAQVIEAFKVFDRDGNGYVTVDYLRKVLNELGDMMPEDEIEEMIYEADPQNSGYVQYETFVGMLFL [A38E] | 3.43
61 | TKAQVIEAFKVFDRDGNGYVTVDYLRKVLNELGDMMPDDEIEEMIYEADPQNSGYVQYETFVGMLFL [A38D] | 3.32
62 | TKAQVIEAFKVFDRDGNGYVTVDYLRKVLNELGDMMLADEIEEMIYEADPQNSGYVQYETFVGMLFL [P37L] | 3.45
63 | TKAQVIEAFKVFDRDGNGYVTVDYLRKVLNELGDMMHADEIEEMIYEADPQNSGYVQYETFVGMLFL [P37H] | 3.46
64 | TKAQVIEAFKVFDRDGNGYVTVDYLRKVLNELGDMMSADEIEEMIYEADPQNSGYVQYETFVGMLFL [P37S] | 3.33
65 | TKAQVIEAFKVFDRDGNGYVTVDYLRKVLNELGDMMMADEIEEMIYEADPQNSGYVQYETFVGMLFL [P37M] | 3.3
66 | TKAQVIEAFKVFDRDGNGYVTVDYLRKVLNELGDMMKADEIEEMIYEADPQNSGYVQYETFVGMLFL [P37K] | 3.7
67 | TKAQVIEAFKVFDRDGNGYVTVDYLRKVLNELGDMMWADEIEEMIYEADPQNSGYVQYETFVGMLFL [P37W] | 3.79
68 | TKAQVIEAFKVFDRDGNGYVTVDYLRKVLNELGDMMGADEIEEMIYEADPQNSGYVQYETFVGMLFL [P37G] | 3.36
69 | TKAQVIEAFKVFDRDGNGYVTVDYLRKVLNELGDMMAADEIEEMIYEADPQNSGYVQYETFVGMLFL [P37A] | 3.1
70 | TKAQVIEAFKVFDRDGNGYVTVDYLRKVLNELGDMMIADEIEEMIYEADPQNSGYVQYETFVGMLFL [P37I] | 3.41
71 | TKAQVIEAFKVFDRDGNGYVTVDYLRKVLNELGDMMEADEIEEMIYEADPQNSGYVQYETFVGMLFL [P37E] | 3.34
72 | TKAQVIEAFKVFDRDGNGYVTVDYLRKVLNELGDMMTADEIEEMIYEADPQNSGYVQYETFVGMLFL [P37T] | 3.32
73 | TKAQVIEAFKVFDRDGNGYVTVDYLRKVLNELGDMMFADEIEEMIYEADPQNSGYVQYETFVGMLFL [P37F] | 3.57
74 | TKAQVIEAFKVFDRDGNGYVTVDYLRKVLNELGDMMCADEIEEMIYEADPQNSGYVQYETFVGMLFL [P37C] | 3.49
75 | TKAQVIEAFKVFDRDGNGYVTVDYLRKVLNELGDMMRADEIEEMIYEADPQNSGYVQYETFVGMLFL [P37R] | 3.45
76 | TKAQVIEAFKVFDRDGNGYVTVDYLRKVLNELGDMMQADEIEEMIYEADPQNSGYVQYETFVGMLFL [P37Q] | 3.43
77 | TKAQVIEAFKVFDRDGNGYVTVDYLRKVLNELGDMMNADEIEEMIYEADPQNSGYVQYETFVGMLFL [P37N] | 3.6
78 | TKAQVIEAFKVFDRDGNGYVTVDYLRKVLNELGDMMYADEIEEMIYEADPQNSGYVQYETFVGMLFL [P37Y] | 3.44
79 | TKAQVIEAFKVFDRDGNGYVTVDYLRKVLNELGDMMDADEIEEMIYEADPQNSGYVQYETFVGMLFL [P37D] | 3.26
80 | TKAQVIEAFKVFDRDGNGYVTVDYLRKVLNELGDMMVADEIEEMIYEADPQNSGYVQYETFVGMLFL [P37V] | 3.34
